From US20240301039A1 (NEW YORK UNIVERSITY IN ABU DHABI, published 2024)

Target: T1, uniformly 15N,13C-labelled wild-type SARS-CoV-2 NSP9 with an additional GlyAlaMetGly tetrapeptide at the … (SARS-CoV-2, UniProt P0DTD1 1-7096)
T1 construct: mature
Assay: 15N-1H HSQC NMR titration at 278 K

B1: nanobody 2NSP23 (VHH)
VHH: QVQLQESGGGLVQPGGSLRLSCAASGLAFSMYTMGWFRQAPGKEREFVAMIISSGDSTDYADSVKGRFTISRDNGKNTVYLQMDSLKPEDTAVYYCAAPKFRYYFSTSPGDFDSWGQGTQVTVSS
notes: also called 2NSP23 with His Tag
Question: B1 was tested. Which “backbone amide cross-peaks that survive at protein/nanobody ratio 1:2” value did it give?
Answer: ~35%
